Data from US20250011456A1, “ANTIBODIES AGAINST CD14 AND USES THEREOF” (Villanelle Life Science Inc, priority 2023, published 2025).
“And” between values parts separate entries of the source, which are not always exact repeats. Equal values may be shown once.

Tested on: CD14 positive recurrent bladder cancer patient-derived xenograft (PDX)
Test: Amount of anti-CD14-IgG1 (5-40 mg/kg) for tumor treatment in PDX mice (tumor length, width, volume, tumor weight; Example 7)
Type: in vivo
Settings: for Tumor Length / Tumor Volume / Tumor Width: per mouse 1-5; for Tumor weight after 28 days: individual mice 1-5
Source text: After removing the primary tumor tissue from the patient, the tissue was temporarily placed in a complete culture medium containing RPMI1640 (Gibco Roswell Park Memorial Institute 1640 Media)+PS (penicillin and streptomycin)+10% FBS (Fetal bovine serum). The tissue was then transported to a sterile operating room within an SPF-grade (Specific Pathogen Free) animal facility. The tumor tissue was cut to an appropriate size (5 millimeters (mm) in diameter). Severely immunodeficient NSG (NOD scid gamma mouse) mice were anesthetized using an isoflurane respirator. The tumor was transplanted subcutaneously into the right rib area through surgery. When the tumor volume reached 1 cm^3, it was passaged following the same procedure, and after expanding for three generations, the tumor became stable for use in formal experiments. During the experiment, passaging and expansion were performed as needed. When the tumor volume reached 100 mm^3, the mice were divided into groups according to the experimental requirements and treated with drugs.
To evaluate concentrations for the anti-CD14-IgG1 antibody, PDX mice were treated with five different concentrations of the IgG1 antibody over a period of 28 days. For these experiments, drug administration on the PDX mice was performed intravenously on alternating 4 days and 3 days.
The five different concentrations of the anti-CD14-IgG1 antibody tested include 5 mg/kg, 10 mg/kg, 15 mg/kg, 25 mg/kg, and 40 mg/kg. A control regimen was utilized as a comparative example. […] The non-specific IgG1 has no binding affinity to antigen. […] Tumor weight and tumor volume were calculated as described above.

[1] = Day 4, IgG1 (10 mg/kg), 10 mg/kg
[2] = Day 11, IgG1 (5 mg/kg), 5 mg/kg
[3] = Day 14, IgG1 (5 mg/kg), 5 mg/kg
[4] = Day 18, IgG1 (5 mg/kg), 5 mg/kg
[5] = Day 21, IgG1 (5 mg/kg), 5 mg/kg
[6] = Day 25, IgG1 (5 mg/kg), 5 mg/kg
[7] = Day 28, IgG1 (5 mg/kg), 5 mg/kg

B1: D6DD3D001: mouse-derived anti-CD14 IgG1 antibody; VH SEQ ID NO: 1, VL SEQ ID NO: 3, heavy chain SEQ ID NO: 2, light chain SEQ ID NO: 4 (antibody)
heavy: DVQLQQSGPGLVKPSQSLSLTCTVTGYSITSDSAWNWIRQFPGNRLEWMGYISYSGSTSYNPSLKSRISITRDTSKNQFFLQLNSVTTEDTATYYCVRGLRFAYWGQGTLVTVSSPSVFLFPPKPKDTLMISRTPEVTCVVVDVSHEDPEVKFNWYVDGVEVHNAKTKPREEQYNSTYRVVSVLTVLHQDWLNGKEYKCKVSNKALPAPIEKTISKAKGQPREPQVYTLPPSREEMTKNQVSLTCLVKGFYPSDIAVEWESNGQPENNYKTTPPVLDSDGSFFLYSKLTVDKSRWQQGNVFSCSVMHEALHNHYTQKSLSLSPGK
light: DIVLTQSPASLAVSLGQRATISCRASESVDSYVNSFLHWYQQKPGQPPKLLIYRASNLQSGIPARFSGSGSRTDFTLTINPVEADDVATYYCQQSNEDPYTFGGGTKLEIKRTVAAPSVFIFPPSDEQLKSGTASVVCLLNNFYPREAKVQWKVDNALQSGNSQESVTEQDSKDSTYSLSSTLTLSKADYEKHKVYACEVTHQGLSSPVTKSFNRGEC
- Tumor Length (Day 0, IgG1 (5 mg/kg), 5 mg/kg): 4.41 mm and 4.54 mm and 4.71 mm and 5.12 mm and 4.93 mm
- Tumor Volume (Day 0, IgG1 (5 mg/kg), 5 mg/kg): 20.01 mm^3 and 19.41 mm^3 and 19.14 mm^3 and 19.44 mm^3 and 19.33 mm^3
- Tumor Volume (Day 0, IgG1 (10 mg/kg), 10 mg/kg): 59.69 mm^3 and 68.55 mm^3 and 77.15 mm^3 and 79.05 mm^3 and 79.08 mm^3
- Tumor Length (Day 4, IgG1 (5 mg/kg), 5 mg/kg): 5.58 mm and 6.11 mm and 6.53 mm and 5.89 mm and 6.64 mm
- Tumor Volume (Day 4, IgG1 (5 mg/kg), 5 mg/kg): 79.57 mm^3 and 87.80 mm^3 and 92.05 mm^3 and 94.26 mm^3 and 105.50 mm^3
- Tumor Width (Day 4, IgG1 (5 mg/kg), 5 mg/kg): 5.22 mm and 5.24 mm and 5.19 mm and 5.53 mm and 5.51 mm
- Tumor Length [1]: 5.95 mm and 6.55 mm
- Tumor Volume [1]: 81.63 mm^3 and 82.98 mm^3 and 85.32 mm^3 and 88.96 mm^3 and 108.37 mm^3
- Tumor Width [1]: 5.12 mm
- Tumor Volume (Day 4, IgG1 (15 mg/kg), 15 mg/kg): 76.19 mm^3 and 77.75 mm^3 and 81.95 mm^3 and 87.59 mm^3 and 90.56 mm^3
- Tumor Length (Day 7, IgG1 (5 mg/kg), 5 mg/kg): 7.84 mm and 6.11 mm and 6.37 mm and 6.61 mm and 6.56 mm
- Tumor Volume (Day 7, IgG1 (5 mg/kg), 5 mg/kg): 103.81 mm^3 and 104.99 mm^3 and 109.45 mm^3 and 121.23 mm^3 and 132.82 mm^3
- Tumor Width (Day 7, IgG1 (5 mg/kg), 5 mg/kg): 5.03 mm and 5.73 mm (2×) and 5.92 mm and 6.22 mm
- Tumor Volume (Day 7, IgG1 (10 mg/kg), 10 mg/kg): 112.99 mm^3 and 113.39 mm^3 and 121.55 mm^3 and 122.33 mm^3 and 133.44 mm^3
- Tumor Volume (Day 7, IgG1 (15 mg/kg), 15 mg/kg): 99.31 mm^3 and 113.51 mm^3 and 118.44 mm^3 and 127.47 mm^3 and 152.88 mm^3
- Tumor Length [2]: 6.48 mm and 6.63 mm and 6.74 mm and 6.44 mm and 7.52 mm
- Tumor Volume [2]: 92.40 mm^3 and 103.06 mm^3 and 128.68 mm^3 and 130.81 mm^3 and 158.69 mm^3
- Tumor Width [2]: 5.22 mm and 5.45 mm and 6.04 mm and 6.23 mm and 6.35 mm
- Tumor Volume (Day 11, IgG1 (10 mg/kg), 10 mg/kg): 100.68 mm^3 and 105.14 mm^3 and 112.60 mm^3 and 143.90 mm^3 and 170.28 mm^3
- Tumor Length [3]: 7.14 mm and 6.88 mm and 7.56 mm and 7.02 mm and 8.46 mm
- Tumor Volume [3]: 128.31 mm^3 and 135.30 mm^3 and 170.26 mm^3 and 171.88 mm^3 and 184.76 mm^3
- Tumor Width [3]: 5.86 mm and 6.13 mm and 6.56 mm and 6.84 mm and 6.46 mm
- Tumor Volume (Day 14, IgG1 (10 mg/kg), 10 mg/kg): 109.71 mm^3 and 110.99 mm^3 and 134.85 mm^3 and 153.36 mm^3 and 165.63 mm^3
- Tumor Length [4]: 7.91 mm and 7.24 mm and 8.45 mm and 8.16 mm and 8.08 mm
- Tumor Volume [4]: 151.02 mm^3 and 169.58 mm^3 and 185.12 mm^3 and 218.31 mm^3 and 231.55 mm^3
- Tumor Width [4]: 6.04 mm and 6.69 mm and 6.47 mm and 7.15 mm and 7.4 mm
- Tumor Volume (Day 18, IgG1 (10 mg/kg), 10 mg/kg): 132.18 mm^3 and 141.82 mm^3 and 163.82 mm^3 and 192.29 mm^3 and 204.50 mm^3
- Tumor Length [5]: 8.92 mm and 8.5 mm and 8.53 mm and 8.19 mm and 8.49 mm
- Tumor Volume [5]: 191.80 mm^3 and 234.46 mm^3 and 261.25 mm^3 and 271.57 mm^3 and 289.36 mm^3
- Tumor Width [5]: 6.41 mm and 7.26 mm and 7.65 mm and 7.96 mm and 8.07 mm
- Tumor Volume (Day 21, IgG1 (10 mg/kg), 10 mg/kg): 218.53 mm^3 and 193.54 mm^3 and 221.69 mm^3 and 223.66 mm^3 and 268.23 mm^3
- Tumor Length [6]: 8.73 mm and 9.67 mm and 9.91 mm and 9.97 mm and 9.69 mm
- Tumor Volume [6]: 234.87 mm^3 and 334.49 mm^3 and 386.25 mm^3 and 465.95 mm^3 and 468.33 mm^3
- Tumor Width [6]: 7.17 mm and 8.13 mm and 8.63 mm and 9.45 mm and 9.61 mm
- Tumor Volume (Day 25, IgG1 (10 mg/kg), 10 mg/kg): 227.79 mm^3 and 282.78 mm^3 and 300.56 mm^3 and 329.18 mm^3 and 336.90 mm^3
- Tumor Length [7]: 9.76 mm and 9.79 mm and 10.39 mm and 11.02 mm and 10.87 mm
- Tumor Volume [7]: 333.47 mm^3 and 459.47 mm^3 and 555.77 mm^3 and 603.55 mm^3 and 637.97 mm^3
- Tumor Width [7]: 8.08 mm and 9.47 mm and 10.11 mm and 10.23 mm and 10.59 mm
- Tumor Volume (Day 28, IgG1 (10 mg/kg), 10 mg/kg): 231.00 mm^3 and 313.49 mm^3 and 338.93 mm^3 and 402.03 mm^3 and 419.55 mm^3
- Tumor weight after 28 days (IgG1 5 mg/kg, 5 mg/kg): 0.486 grams and 0.535 grams and 0.567 grams and 0.502 grams and 0.625 grams
- Tumor weight after 28 days (IgG1 10 mg/kg, 10 mg/kg): 0.341 grams and 0.302 grams and 0.267 grams and 0.285 grams and 0.386 grams
- Tumor weight after 28 days (IgG1 15 mg/kg, 15 mg/kg): 0.215 grams and 0.202 grams and 0.246 grams and 0.253 grams and 0.291 grams
- Tumor weight after 28 days (IgG1 25 mg/kg, 25 mg/kg): 0.158 grams and 0.184 grams and 0.191 grams and 0.204 grams and 0.211 grams
- Tumor weight after 28 days (IgG1 40 mg/kg, 40 mg/kg): 0.128 grams and 0.195 grams and 0.199 grams and 0.205 grams and 0.206 grams
- tumor inhibition level versus dosage (anti-CD14-IgG1 5 mg/kg to 15 mg/kg, 28 days): significantly increase with the dosage
